According to paper PMC6945068:

Target: purified 3xFlag-tagged B56γ (Xenopus laevis)
Experiment: pull-down (amylose beads) with immunoblot quantification
Conditions: chain shown with the change, purified Flag-B56γ, 23°C, 30 min, read off a plot

purified 3xFlag-tagged B56γ (Xenopus laevis), sequence (chain, as listed by the source): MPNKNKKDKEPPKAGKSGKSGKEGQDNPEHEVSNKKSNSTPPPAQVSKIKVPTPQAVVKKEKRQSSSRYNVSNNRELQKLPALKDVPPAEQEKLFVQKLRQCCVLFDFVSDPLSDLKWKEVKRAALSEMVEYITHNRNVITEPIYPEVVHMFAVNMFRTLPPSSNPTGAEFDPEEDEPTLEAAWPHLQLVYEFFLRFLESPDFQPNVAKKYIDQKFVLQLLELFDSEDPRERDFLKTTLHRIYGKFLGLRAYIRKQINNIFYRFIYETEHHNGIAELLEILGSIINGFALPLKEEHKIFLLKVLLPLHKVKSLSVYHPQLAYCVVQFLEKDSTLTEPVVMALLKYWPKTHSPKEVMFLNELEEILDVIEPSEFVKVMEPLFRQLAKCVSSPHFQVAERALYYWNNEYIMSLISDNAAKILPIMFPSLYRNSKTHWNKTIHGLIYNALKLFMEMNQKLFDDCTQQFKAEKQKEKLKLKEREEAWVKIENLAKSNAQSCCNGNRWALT

- response (pre-incubated with Cdk2-cyclin A at 30°C for 60 min (+Cdk), parent: est. 5.3): 1.2 A.U.
- response (without Cdk2-cyclin A pre-incubation, parent: 1.0): 1 A.U.
B1: MBP-fused Apc1-loop^500 wild type (residues 515-584 of Xenopus tropicalis Apc1), Q08D52 T532A; T539A; S558A (protein)
chain: GLAAPSLGMSNPMPRPSAPLESISAPAKPLNKHLAPMDEAGMLAPVPELRDSTRLHESTYLDDCTFHQFG
